The target in experiment [1] is T1, Aβ1-42 polypeptide (human).
T1 construct: Synthetic peptide; also called Aβ1-42 monomer; Aβ monomer
The experiment can be described thus: ELISA EC50 on Aβ42 monomer, 2 ml transient transfection; table note: '-' means no combination; expression 32.1 mg/L. Background: An ELISA detects its analyte on a solid surface through an enzyme-linked reagent.

Experiment [2] deals with T1, Aβ1-42 polypeptide. Nature of the experiment: ELISA EC50 on Aβ42 monomer, 2 ml transient transfection; table note: '-' means no combination; expression 7.72 mg/L.
Experiment [3] concerns the target T1, Aβ1-42 polypeptide. Nature of the experiment: ELISA EC50 on Aβ42 monomer, 2 ml transient transfection; table note: '-' means no combination; expression 68.4 mg/L.
Experiment [4] concerns the target T1, Aβ1-42 polypeptide. The experiment can be described thus: ELISA EC50 on Aβ42 monomer, 2 ml transient transfection; table note: '-' means no combination; expression 6.14 mg/L.

Where a chain is given by its changes, count along the chain named.

T1 sequence (peptide, as listed by the source): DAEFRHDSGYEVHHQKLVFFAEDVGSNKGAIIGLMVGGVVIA

B1: 066-4.26.14H1L4 (antibody, human IgG1, V domains shown)
VH: EVQLVESGGGLVKPGGSLRLSCAASGFTFRSYAMSWVRQAPGKGLEWVASISTTSNTYYPDSVKGRFTTSRDNAKNSLYLQMNSLRAEDTAVYYCGRGVITNQAWFAYWGQGTLVTVSS
VL: EIVLTQSPGTLSLSPGERATLSCRASQSISNNLHWYQQKPGQAPRLLIKYASQSISGIPDRFSGSGSGTDFTLTISRLEPEDFAVYYCQQSNSWPLTFGGGTKVEIKR
notes: Humanized full-length antibody; human IgG1 heavy constant and human kappa light constant (vectors pGS003-hIgG1CH, pGS003-hIgKCL)
On to B1, for which, in the experiment with Aβ1-42 polypeptide [1], the binding result is given as “no binding”.

B2: 066-4.26.14H2L4 (antibody, human IgG1, kappa, V domains shown)
VH: B1 VH with A40T, G42E, G44R, L78V, N83S, L114T
VL: B1 VL
notes: as for B1
As for B2, in the experiment with Aβ1-42 polypeptide [2], the binding result is listed as “no binding”.

B3: 066-4.26.14H1L5 (antibody, human IgG1, V domains shown)
VH: B1 VH
VL: EIVLTQSPDFQSVTPKEKVTITCRASQSISNNLHWYQQKPDQSPKLLIKYASQSISGVPSRFSGSGSGTDFTLTINSLEAEDAATYYCQQSNSWPLTFGQGTKVEIKR
notes: as for B1
Regarding B3, the binding result in the experiment with Aβ1-42 polypeptide [3] is listed as “no binding”.

B4: 066-4.26.14H2L5 (antibody, human IgG1, kappa, V domains shown)
VH: B1 VH with A40T, G42E, G44R, L78V, N83S, L114T
VL: B3 VL
notes: as for B1
B4: the binding result with Aβ1-42 polypeptide [4] is given as “no binding”.

The values above are taken from US20220242936A1 (CHANGCHUN GENESCIENCE PHARMACEUTICAL, published 2022).
